According to patent publication US20170368208A1, “CANCER IMAGING AGENT” (ENDOCYTE, INC., priority 2015, published 2017):
*1 amine or outer side, *2 acyl side, *3 side chain or, on linkers, in order; H or OH if unused. Where a SMILES comes first, the peptide text is derived from it. Side-chain parts run from the residue outwards. [ ]: non-standard residue; d: D form. ξ: configuration not given here. γGlu = O=C(O)[C@H](CCC(=O)[*:2])N[*:1]; ξE = NC(CCC(=O)O)C(=O)O; Dap = NC[C@H](N)C(=O)O; Aoc = NCCCCCCCC(=O)O; CO = O=C([*:1])[*:2]

Experiment: Radiochemical purity and stability of 99mTc-Compound II after room temperature labelling of kit formulations (radio-HPLC)
Format: physicochemical
Conditions: 0.1 mg tin chloride
Experimental: A Compound II kit vial from Example 2 was removed from the refrigerator and allowed to warm to room temperature (17-27° C.) for 15-30 min. The vial was put into a suitable radioactive shielding container. One to Two milliliter (≦50 mCi) of ^99mTc pertechnetate injection was added to the vial using a lead shielded syringe. Before removing the syringe from the vial, equal volume of headspace was withdrawn in order to normalize the pressure inside the vial. The vial was gently swirled to completely dissolve the powder and then allowed to stand at ambient temperature (17-27° C.) for 15 minutes. 5-6 mL of 0.9% sodium chloride injection, USP, was then added to the vial. The labeled solution was stored at room temperature (17-27° C.) and used within 6 hours of preparation. The Radio-HPLC system used for the following experiment consisted of a Waters 600 intelligent pump, a Bioscan Flow-Count radiodetector, and a Waters Nova-Pak C18 (3.9×150 mm) column, using Laura v1.5 radiochromatogram software. 1-5 μL of the ^99mTc-Compound II sample was injected into the HPLC and eluted with an aqueous mobile phase 0.1% trifluoroacetic acid in water (A) and Acetonitrile (B) at a linear gradient of 25% B to 35% B over 20 minutes at a flow rate of 1 mL/min. […] The radiochemical purity of ^99mTc-Compound II was calculated as follows: Radiochemical purity=isomer A %+isomer B % (FIG. 1) Using the methods described herein, Compound II was subjected to room temperature labelling at varying pH. Using the methods described herein, Compound II was subjected to room temperature labelling with varying amounts of EDTA. Using the methods described herein, Compound II was subjected to room temperature labelling with varying amounts of sodium gluconate.

With `N[C@@H](CNC(=O)[C@H](Cc1ccccc1)NC(=O)[C@H](Cc1ccccc1)NC(=O)CCCCCCCNC(=O)CC[C@H](NC(=O)NC(CCC(=O)O)C(=O)O)C(=O)O)C(=O)N[C@@H](CC(=O)O)C(=O)N[C@@H](CS)C(=O)O` (stereo partly drawn) [EC0652] (H-[Dap]([Phe-Phe-Aoc-γGlu-CO-ξE])-Asp-Cys-OH) the “RCP (%) Time (6 Hr)” value (kit 0.1 mg EC0652, 1 mg sodium gluconate, 0.3 mg EDTA, pH 6.8, 6 Hr) was 91.7%, the “RCP (%) Time (6 Hr)” value (kit 0.1 mg EC0652, 20 mg sodium gluconate, 0.3 mg EDTA, pH 6.8, 6 Hr) was 97.9% and the “RCP (%) Time (0 Hr)” value (kit 0.1 mg EC0652, 25 mg sodium gluconate, 0 mg EDTA, pH 6.8, 0 Hr) was 85.37%. For the same compound, the “RCP (%) Time (6 Hr)” value (kit 0.1 mg EC0652, 25 mg sodium gluconate, 0 mg EDTA, pH 6.8, 6 Hr) was 88.06%, the “RCP (%) Time (0 Hr)” value (kit 0.1 mg EC0652, 25 mg sodium gluconate, 0.005 mg EDTA, pH 6.8, 0 Hr) was 83.69% and the “RCP (%) Time (6 Hr)” value (kit 0.1 mg EC0652, 25 mg sodium gluconate, 0.005 mg EDTA, pH 6.8, 6 Hr) was 74.46%. The “RCP (%) Time (0 Hr)” value (kit 0.1 mg EC0652, 25 mg sodium gluconate, 0.01 mg EDTA, pH 6.8, 0 Hr) was 85.92%, the “RCP (%) Time (6 Hr)” value (kit 0.1 mg EC0652, 25 mg sodium gluconate, 0.01 mg EDTA, pH 6.8, 6 Hr) was 94.03% and the “RCP (%) Time (0 Hr)” value (kit 0.1 mg EC0652, 25 mg sodium gluconate, 0.1 mg EDTA, pH 6.8, 0 Hr) was 95.77%. The “RCP (%) Time (6 Hr)” value (kit 0.1 mg EC0652, 25 mg sodium gluconate, 0.1 mg EDTA, pH 6.8, 6 Hr) was 95.33%, the “RCP (%) Time (0 Hr)” value (kit 0.1 mg EC0652, 25 mg sodium gluconate, 0.30 mg EDTA, pH 6.8, 0 Hr (Table 5)) was 97.02% and the “RCP (%) Time (6 Hr)” value (kit 0.1 mg EC0652, 25 mg sodium gluconate, 0.30 mg EDTA, pH 6.8, 6 Hr (Table 5)) was 97.49%. The “RCP (%) Time (6 Hr)” value (kit 0.1 mg EC0652, 25 mg sodium gluconate, 0.3 mg EDTA, pH 6.8, 6 Hr (Table 6)) was 98.5%, the “Radiochemical Purity (%) Time (0 Hr)” value (kit 0.1 mg EC0652, 25 mg sodium gluconate, 0.3 mg EDTA, pH 5.1, 0 Hr after room temperature 99mTc labelling) was 97.7% and the “Radiochemical Purity (%) Time (6 Hr)” value (kit 0.1 mg EC0652, 25 mg sodium gluconate, 0.3 mg EDTA, pH 5.1, 6 Hr after room temperature 99mTc labelling) was 85.5%. The “Radiochemical Purity (%) Time (0 Hr)” value (kit 0.1 mg EC0652, 25 mg sodium gluconate, 0.3 mg EDTA, pH 6.2, 0 Hr) was 96.8%, the “Radiochemical Purity (%) Time (6 Hr)” value (kit 0.1 mg EC0652, 25 mg sodium gluconate, 0.3 mg EDTA, pH 6.2, 6 Hr) was 94.1% and the “Radiochemical Purity (%) Time (0 Hr)” value (kit 0.1 mg EC0652, 25 mg sodium gluconate, 0.3 mg EDTA, pH 6.8, 0 Hr (Table 3)) was 97.4%. For the same compound, the “Radiochemical Purity (%) Time (6 Hr)” value (kit 0.1 mg EC0652, 25 mg sodium gluconate, 0.3 mg EDTA, pH 6.8, 6 Hr (Table 3)) was 94.8%, the “Radiochemical Purity (%) Time (0 Hr)” value (kit 0.1 mg EC0652, 25 mg sodium gluconate, 0.3 mg EDTA, pH 7.4, 0 Hr) was 96.5% and the “Radiochemical Purity (%) Time (6 Hr)” value (kit 0.1 mg EC0652, 25 mg sodium gluconate, 0.3 mg EDTA, pH 7.4, 6 Hr) was 96.0%. For the same compound, the “RCP (%) Time (0 Hr)” value (kit 0.1 mg EC0652, 25 mg sodium gluconate, 1.0 mg EDTA, pH 6.8, 0 Hr) was 96.69%, the “RCP (%) Time (6 Hr)” value (kit 0.1 mg EC0652, 25 mg sodium gluconate, 1.0 mg EDTA, pH 6.8, 6 Hr) was 96.87% and the “RCP (%) Time (6 Hr)” value (kit 0.1 mg EC0652, 30 mg sodium gluconate, 0.3 mg EDTA, pH 6.8, 6 Hr) was 97.0%. For the same compound, the “RCP (%) Time (6 Hr)” value (kit 0.1 mg EC0652, 50 mg sodium gluconate, 0.3 mg EDTA, pH 6.8, 6 Hr) was 98.0%.
